# Key:
# Test in all cases: cell-based or functional assay
# [1] = target: human MIP-1α (CCL3) (human) (UniProt P10147)
# [2] = target: murine MIP-1β (CCL4) (murine) (UniProt P14097)
# [3] = target: murine RANTES (CCL5) (murine) (UniProt P30882)
# murine RANTES (CCL5) (murine), sequence (P30882 24-91 limits assumed): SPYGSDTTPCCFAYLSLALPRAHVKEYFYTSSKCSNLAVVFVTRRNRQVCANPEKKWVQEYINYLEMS
# human MIP-1α (CCL3) (human), sequence (P10147 27-92 limits assumed): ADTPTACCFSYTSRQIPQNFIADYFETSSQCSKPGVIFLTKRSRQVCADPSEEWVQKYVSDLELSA
# murine MIP-1β (CCL4) (murine), sequence (P14097 24-92 limits assumed): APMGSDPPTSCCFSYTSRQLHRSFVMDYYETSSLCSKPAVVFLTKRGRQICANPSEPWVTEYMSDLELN
inhibition of chemokine-induced THP-1 cell migration (transwell chemotaxis assay) [1] [%],inhibition of chemokine-induced THP-1 cell migration (transwell chemotaxis assay) [2] [%],inhibition of chemokine-induced THP-1 cell migration (transwell chemotaxis assay) [3] [%],Substance
50,–,–,hCCR5(EC2)-IgG (Fc fusion)
–,50,50,mCCR5(EC3)-IgG (Fc fusion)

# Source: US20100227805A1
